In the data set the target is T1, Rrp41 D182A (catalytically inactive);Rrp42 (Sulfolobus solfataricus;Sulfolobus …, UniProt Q9UXC2;Q9UXC0 ;, D182A|).
T1 sequence 1: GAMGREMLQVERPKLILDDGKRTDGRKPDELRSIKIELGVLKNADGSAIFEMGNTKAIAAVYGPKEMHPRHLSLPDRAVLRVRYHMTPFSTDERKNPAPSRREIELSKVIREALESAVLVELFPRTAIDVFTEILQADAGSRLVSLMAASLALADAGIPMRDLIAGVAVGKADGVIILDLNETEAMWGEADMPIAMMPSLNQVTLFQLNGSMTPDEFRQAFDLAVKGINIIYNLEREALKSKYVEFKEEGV
T1 sequence 2: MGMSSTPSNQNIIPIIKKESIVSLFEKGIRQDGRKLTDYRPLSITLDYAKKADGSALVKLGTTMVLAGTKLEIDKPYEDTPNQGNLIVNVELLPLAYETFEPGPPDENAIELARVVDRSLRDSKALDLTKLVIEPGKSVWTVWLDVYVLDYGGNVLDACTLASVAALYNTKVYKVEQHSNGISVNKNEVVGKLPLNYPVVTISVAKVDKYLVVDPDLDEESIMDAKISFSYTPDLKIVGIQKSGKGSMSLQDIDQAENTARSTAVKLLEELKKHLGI
In words: fluorescence anisotropy. (In general: Polarisation of emitted light reports the rotation of a fluorescent probe.)

We go through one molecule from PMC4824110.

One may read the Kd as the equilibrium constant for the complex coming apart.

B1: fluorescent 32A (FA RNA) (structured_RNA)
RNA: GCCCCCCCCGAAAGGGGGGGGAAAAAAAAAAAAAAAAAAAAAUAAAAAAAAAAAGCU
modifications: 4-thiouridine at position 43
In turn, B1 yielded a Kd of 11.7 ± 0.9 nM.
